# ± gives the uncertainty stated by the source.
# Assay: self-splicing fitness, log relative to wild type (ln ratio); higher = more splicing; Tetrahymena group I intron in knt gene, E. coli kanamycin selection, DiMSum; sequences stand for … in CUCUCU…GGAGGGAAAAGUUAUCAGGCAUGCACCUGGUAGCUAGUCUUUAAACCAAUAGAUUGCAUCGGUUUAAAAGGCAAGACCGUCAAAUUGCGGGAAAGGGGUCAACAGCCGUUCAGUACCAAGUCUCAGGGGAAACUUUGAGAUGGCCUUGCAAAGGGUAUGGUAAUAAGCUGACGGACAUGGUCCUAACCACGCAGCCAAGUCCUAAGUCAACAGAUCUUCUGUUGAUAUGGAUGCAGUUCACAGACUAAAUGUCGGUCGGGGAAGAUGUAUUCUUCUCAUAAGAUAUAGUCGGACCUCUCCUUAAUGGGAGCUAGCGGAUGAAGUGAUGCAACACUGGAGCCGCUGGGAACUAAUUUGUAUGCGAAAGUAUAUUGAUUAGUUUUGGAGUACUCGUGGUCG
# How it was run: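 Pooled colonies went to amplicon sequencing on an Illumina HiSeq 2500 after six replicate transformations. The plates were LB agar with 100 μg/mL carbenicillin, 50 μM IPTG and 0.2% rhamnose, with or without 25 μg/mL kanamycin, incubated overnight at 37°C or 30°C. The E. coli BL21(DE3) library had all eight P1ex-region intron nucleotides randomised, the intron placed in the knt kanamycin-resistance gene on pET-22b(+). DiMSum fitness is the error-weighted combination of replicate fold changes, kanamycin against none, normalised to wild type.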
Sequence,self-splicing fitness (ln) (30 °C),self-splicing fitness (ln) (37 °C)
GAGUAGCAAUAUUACGGUCU,-1.24 ± 0.15,-1.22 ± 0.17
GAGUAGCAAUAUUACGGUUA,-0.885 ± 0.14,-0.497 ± 0.099
GAGUAGCAAUAUUACGGUUU,-0.669 ± 0.092,-0.275 ± 0.091
GAGUAGCAAUAUUACGUACU,-2.67 ± 0.15,-1.67 ± 0.16
GAGUAGCAAUAUUACGUAUG,-2.85 ± 0.13,-2.51 ± 0.19
GAGUAGCAAUAUUACGUCGU,-3.35 ± 0.29,-0.572 ± 0.2
GAGUAGCAAUAUUACGUCUA,-0.203 ± 0.099,-0.00603 ± 0.14
GAGUAGCAAUAUUACGUGCU,-3.42 ± 0.19,-2.31 ± 0.2
GAGUAGCAAUAUUACGUUGU,-2.19 ± 0.17,-1.41 ± 0.16
GAGUAGCAAUAUUACGUUUG,-3.89 ± 0.16,-3.88 ± 0.24
GAUAAGCAAUAUUACGACCU,-0.864 ± 0.086,0.36 ± 0.1
GAUAAGCAAUAUUACGAUAC,-1.52 ± 0.18,-1.63 ± 0.27
GAUAAGCAAUAUUACGAUUA,-0.905 ± 0.12,0.0831 ± 0.12
GAUAAGCAAUAUUACGCAUA,-0.919 ± 0.13,-0.783 ± 0.18
GAUAAGCAAUAUUACGCCCU,-0.569 ± 0.13,0.292 ± 0.15
GAUAAGCAAUAUUACGCCUC,,-2.35 ± 0.42
GAUAAGCAAUAUUACGCUAU,-2.91 ± 0.26,-1.01 ± 0.29
GAUAAGCAAUAUUACGCUCC,-1.82 ± 0.34,
GAUAAGCAAUAUUACGCUGA,,-1.31 ± 0.22
GAUAAGCAAUAUUACGGCGA,-0.337 ± 0.12,0.114 ± 0.13
GAUAAGCAAUAUUACGGCGC,0.0448 ± 0.13,-0.881 ± 0.13
GAUAAGCAAUAUUACGGGCA,-1.65 ± 0.12,-0.177 ± 0.13

Sequence,self-splicing fitness (ln) (30 °C),self-splicing fitness (ln) (37 °C)
GAUAAGCAAUAUUACGUGAC,-2.55 ± 0.32,-0.818 ± 0.3
GAUAAGCAAUAUUACGUGAG,-2.14 ± 0.096,-0.113 ± 0.099
GAUAAGCAAUAUUACGUUAA,-3.91 ± 0.43,-1.52 ± 0.17
GAUAAGCAAUAUUACGUUCG,-1.42 ± 0.098,-1.05 ± 0.14
GAUAAGCAAUAUUACGUUGU,-2.12 ± 0.089,-2.6 ± 0.11
GAUAAGCAAUAUUACGUUUU,-2.39 ± 0.098,-1.48 ± 0.1
GAUCAGCAAUAUUACGAACG,-0.118 ± 0.16,0.507 ± 0.17
GAUCAGCAAUAUUACGACAG,-3.24 ± 0.23,-1.49 ± 0.28
GAUCAGCAAUAUUACGACUC,-0.0915 ± 0.14,-0.146 ± 0.15
GAUCAGCAAUAUUACGAGAA,-1.89 ± 0.17,-1.16 ± 0.14
GAUCAGCAAUAUUACGAGCC,-0.966 ± 0.074,-1.1 ± 0.093
GAUCAGCAAUAUUACGAGCU,-1.42 ± 0.15,-0.233 ± 0.15
GAUCAGCAAUAUUACGAGGC,,-1.92 ± 0.23
GAUCAGCAAUAUUACGAGGU,-2.98 ± 0.24,-2.84 ± 0.22
GAUCAGCAAUAUUACGAGUC,-3.31 ± 0.29,-0.73 ± 0.16
GAUCAGCAAUAUUACGAUCU,-4.13 ± 0.42,-1.8 ± 0.26
GAUCAGCAAUAUUACGCAAU,-1.56 ± 0.1,0.129 ± 0.11
GAUCAGCAAUAUUACGCAUG,-0.141 ± 0.095,0.865 ± 0.14
GAUCAGCAAUAUUACGCCCU,-0.299 ± 0.069,0.418 ± 0.084
GAUCAGCAAUAUUACGCCUC,-1.36 ± 0.18,-0.876 ± 0.23
GAUCAGCAAUAUUACGCUGA,-3.83 ± 0.37,-1.33 ± 0.21
